Results as given in article PMC2098691, “Regulation of the Xenopus Xsox17α1 promoter by co-operating VegT and Sox17 sites”.

T1: VegT (Xenopus, UniProt P87377 1-455)
T1 sequence: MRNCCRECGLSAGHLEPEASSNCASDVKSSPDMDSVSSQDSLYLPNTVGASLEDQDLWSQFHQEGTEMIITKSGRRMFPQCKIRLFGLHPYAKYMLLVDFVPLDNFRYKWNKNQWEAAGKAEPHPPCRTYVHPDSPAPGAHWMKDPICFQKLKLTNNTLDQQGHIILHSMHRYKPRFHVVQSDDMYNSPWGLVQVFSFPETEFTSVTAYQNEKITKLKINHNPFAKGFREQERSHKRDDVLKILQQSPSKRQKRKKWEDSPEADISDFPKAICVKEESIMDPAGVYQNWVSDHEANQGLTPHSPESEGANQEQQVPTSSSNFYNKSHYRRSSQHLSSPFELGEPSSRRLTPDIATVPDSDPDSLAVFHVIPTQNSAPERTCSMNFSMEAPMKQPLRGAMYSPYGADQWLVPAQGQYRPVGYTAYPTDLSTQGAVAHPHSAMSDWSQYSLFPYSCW

B1: B1 T-box mutant (dsDNA)
DNA 1: TCTCCAGAGTACGCACATTCATTGTTTGTTA
DNA 2: TAACAAACAATGAATGTGCGTACTCTGGAGA
B2: B1 T-box probe (dsDNA)
DNA 1: TGTCCAGAGTTCACACCATCATTGTTTGTTA
DNA 2: TAACAAACAATGATGGTGTGAACTCTGGACA
B3: T-box consensus (Derrière) (dsDNA)
DNA 1: TCTCCAGAGTTCACACCTTCATTGTTTGTTA
DNA 2: TAACAAACAATGAAGGTGTGAACTCTGGAGA

These binders were tested against T1, VegT (assay: EMSA; poly(dI.dC); 15 µl with 3 µl MDB buffer (20 mM HEPES pH 7.9, 100 mM KCl, 12.5 mM MgCl2, 0.1 mM EDTA, 17% glycerol, 2 mM DTT (printed DDT)), 2 µg poly(dI.dC), 1 µl IVT protein, 10 min + 10 min (preincubation at 30 °C); 15% gel at 4 °C; 50-fold competitor in controls). Details: label: 5' 32P (forward strand), blunt.
B1: no binding.
B2: binds.
B3: binds.
